Experimental findings from patent US11219695 are described below.

The test system of data set [1] is ZFN SBS 47171 (left/right albumin ZFN, FokI fusion) (synthetic construct). The experiment in a line: cell_activity. The settings on record: ZFN pair with P2; HepG2/C3A, 300K/600K vg/cell, donor A; 39.81% with donor B; half-site not stated.
Data set [2] concerns ZFN SBS 47898 (also printed as SB 47931 in the transduction method) (synthetic construct). Kind of data set: cell_activity. The settings on record: ZFN pair with P1; HepG2/C3A, 300K/600K vg/cell, donor A; partner named 47898 or 47931 in text; half-site not stated.

Turning to “GCACTAAGGAAAGTGCAAAGTAACTTAGAGTGACTGAAACTTCACAGAATAGGGTTGAAGATTGAATTCATAACTATCCCAAAGACCTATCCATTGCACTATGCTTTATTTAAAAACCACAAAACCTGTGCTGTTGATCTCATAAATAGAACTTGTATTTATATTTATTTTCATTTTAGTCTGTCTTCTTGGTTGCTGTTGATAGACACTAAAAGAGTATTA (double strand)”, the activity in data set [1] and in data set [2] was 43.5 % indels in each case.
